Test results as given in IntAct's records for PubMed 16388599.

B1: Tyrosine-protein phosphatase non-receptor type 1 (Homo sapiens), P18031 (parent)
chain: MEMEKEFEQIDKSGSWAAIYQDIRHEASDFPCRVAKLPKNKNRNRYRDVSPFDHSRIKLHQEDNDYINASLIKMEEAQRSYILTQGPLPNTCGHFWEMVWEQKSRGVVMLNRVMEKGSLKCAQYWPQKEEKEMIFEDTNLKLTLISEDIKSYYTVRQLELENLTTQETREILHFHYTTWPDFGVPESPASFLNFLFKVRESGSLSPEHGPVVVHCSAGIGRSGTFCLADTCLLLMDKRKDPSSVDIKKVLLEMRKFRMGLIQTADQLRFSYLAVIEGAKFIMGDSSVQDQWKELSHEDLEPPPEHIPPPPRPPKRILEPHNGKCREFFPNHQWVKEETQEDKDCPIKEEKGSPLNAAPYGIESMSQDTEVRSRVVGGSLRGAQAASPAKGEPSLPEKDEDHALSYWKPFLVNMCVATVLTAGAYLCYRFLFNSNT

Variants of: B1
Conditions: with cav1_human CAV1, Q03135
Chain of cav1_human CAV1, Q03135 (Q03135 whole entry): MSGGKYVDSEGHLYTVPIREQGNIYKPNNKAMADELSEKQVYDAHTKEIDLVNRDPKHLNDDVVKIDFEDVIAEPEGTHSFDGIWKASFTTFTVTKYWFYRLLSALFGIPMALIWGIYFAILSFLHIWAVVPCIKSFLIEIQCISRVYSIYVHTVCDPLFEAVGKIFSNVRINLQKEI

Variant	effect of a mutation on the interaction
D181A	disrupting interaction
